US20240239875A1 (published 2024)

How the values were obtained:
Assay in all cases: ELISA
MERS spike protein = molecular target: T1, MERS spike protein (MERS-CoV, UniProt K9N5Q8 18-1296)
T1 chain: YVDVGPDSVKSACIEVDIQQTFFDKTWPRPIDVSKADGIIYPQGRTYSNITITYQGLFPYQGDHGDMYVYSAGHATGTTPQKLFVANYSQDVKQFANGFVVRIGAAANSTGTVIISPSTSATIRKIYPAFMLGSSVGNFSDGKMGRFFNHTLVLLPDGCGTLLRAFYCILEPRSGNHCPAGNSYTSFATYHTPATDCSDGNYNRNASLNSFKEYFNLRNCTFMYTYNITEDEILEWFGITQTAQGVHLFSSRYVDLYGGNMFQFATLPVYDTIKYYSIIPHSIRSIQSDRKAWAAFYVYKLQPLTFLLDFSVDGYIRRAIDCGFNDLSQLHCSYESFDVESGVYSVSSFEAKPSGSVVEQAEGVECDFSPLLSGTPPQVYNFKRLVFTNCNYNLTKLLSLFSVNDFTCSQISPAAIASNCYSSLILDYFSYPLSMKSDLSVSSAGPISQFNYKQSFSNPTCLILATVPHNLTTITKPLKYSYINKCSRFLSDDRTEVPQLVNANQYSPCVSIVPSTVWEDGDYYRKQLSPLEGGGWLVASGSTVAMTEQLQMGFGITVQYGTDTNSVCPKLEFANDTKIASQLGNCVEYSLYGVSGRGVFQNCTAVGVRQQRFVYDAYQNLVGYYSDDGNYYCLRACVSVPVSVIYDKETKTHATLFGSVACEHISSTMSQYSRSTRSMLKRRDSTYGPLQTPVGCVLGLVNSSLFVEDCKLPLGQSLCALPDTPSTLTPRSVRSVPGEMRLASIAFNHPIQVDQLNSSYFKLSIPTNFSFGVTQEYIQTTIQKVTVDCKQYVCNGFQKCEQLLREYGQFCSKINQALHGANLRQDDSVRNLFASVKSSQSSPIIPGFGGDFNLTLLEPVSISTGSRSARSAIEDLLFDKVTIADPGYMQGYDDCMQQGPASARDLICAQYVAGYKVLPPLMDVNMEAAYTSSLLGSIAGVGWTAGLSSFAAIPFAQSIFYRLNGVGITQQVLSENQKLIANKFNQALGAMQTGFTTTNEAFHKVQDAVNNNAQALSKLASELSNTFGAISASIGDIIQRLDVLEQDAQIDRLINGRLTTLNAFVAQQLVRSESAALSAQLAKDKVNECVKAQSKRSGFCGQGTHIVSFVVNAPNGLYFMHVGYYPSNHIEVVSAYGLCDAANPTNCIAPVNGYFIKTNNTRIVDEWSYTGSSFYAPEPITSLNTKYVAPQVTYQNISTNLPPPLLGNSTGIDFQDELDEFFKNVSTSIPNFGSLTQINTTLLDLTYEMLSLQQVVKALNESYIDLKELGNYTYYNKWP

SARS-CoV-1 spike protein = SARS-CoV-1 spike protein (SARS-CoV-1, UniProt P59594 14-1195)
SARS-CoV-2 S2 domain = SARS-CoV-2 S2 domain (UniProt P0DTC2 686-1213)
HKU1 spike protein = molecular target: T2, HKU1 spike protein (HCoV-HKU1)
T2 chain: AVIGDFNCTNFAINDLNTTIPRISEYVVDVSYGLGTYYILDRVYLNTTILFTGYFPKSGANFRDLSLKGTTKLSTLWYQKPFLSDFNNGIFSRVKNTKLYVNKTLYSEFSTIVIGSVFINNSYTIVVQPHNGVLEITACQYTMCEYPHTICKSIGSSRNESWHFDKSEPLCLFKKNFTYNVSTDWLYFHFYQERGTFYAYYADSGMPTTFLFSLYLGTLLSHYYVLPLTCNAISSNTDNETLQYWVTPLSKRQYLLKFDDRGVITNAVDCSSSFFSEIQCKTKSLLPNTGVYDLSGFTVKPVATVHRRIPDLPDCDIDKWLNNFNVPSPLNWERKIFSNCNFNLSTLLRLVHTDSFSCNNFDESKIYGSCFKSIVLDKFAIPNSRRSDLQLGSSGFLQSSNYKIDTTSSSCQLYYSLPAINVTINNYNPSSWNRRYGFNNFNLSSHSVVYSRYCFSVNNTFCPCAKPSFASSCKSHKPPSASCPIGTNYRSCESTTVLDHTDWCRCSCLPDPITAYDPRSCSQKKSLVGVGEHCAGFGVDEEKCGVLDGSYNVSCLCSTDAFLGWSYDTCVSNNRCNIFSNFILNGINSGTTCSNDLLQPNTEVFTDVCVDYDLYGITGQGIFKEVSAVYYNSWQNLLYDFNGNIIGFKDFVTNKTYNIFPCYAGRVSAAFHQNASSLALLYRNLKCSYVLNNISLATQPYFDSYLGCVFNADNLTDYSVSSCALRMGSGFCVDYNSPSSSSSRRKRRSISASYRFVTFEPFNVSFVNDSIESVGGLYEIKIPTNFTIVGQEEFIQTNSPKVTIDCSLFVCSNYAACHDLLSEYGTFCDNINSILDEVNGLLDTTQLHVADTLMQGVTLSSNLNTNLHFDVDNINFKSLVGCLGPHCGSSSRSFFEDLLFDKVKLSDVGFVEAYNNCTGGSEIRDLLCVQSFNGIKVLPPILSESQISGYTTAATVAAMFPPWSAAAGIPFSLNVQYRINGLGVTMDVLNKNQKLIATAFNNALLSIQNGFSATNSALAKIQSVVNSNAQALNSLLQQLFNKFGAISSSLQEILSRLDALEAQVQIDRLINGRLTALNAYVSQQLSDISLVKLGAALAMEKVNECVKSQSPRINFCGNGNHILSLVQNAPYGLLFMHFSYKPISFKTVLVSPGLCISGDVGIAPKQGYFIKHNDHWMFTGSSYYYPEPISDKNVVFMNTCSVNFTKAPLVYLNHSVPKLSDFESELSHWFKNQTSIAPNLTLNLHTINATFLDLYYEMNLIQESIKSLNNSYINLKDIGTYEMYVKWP

B1: 10-B11-A (antibody, V domains shown)
VH: QVQLQQPGAELVKPGASVKVSCKASGYTFTSYWMHWVKQRPGQGLEWIGRIHPSDSDTNYYQKFKGKATLSVDKSSSTAYMQLSSLTSEDSAVYYCAIPLYSYDNSGGYYPMDYWGQGTSVTVSS
VL: DIVMTQSQKFMSTSVGDRVTITCKASQNVRTAVAWYQQKPGQSPKKLIYLASNRHTGVPDRFTGSGSGTDFTLAISNVQSEDLADYFCLQHWNYPFTFGSGTRLEIK
EC50 (MERS spike protein): > 200 nM | EC50 (SARS-CoV-1 spike protein): 20.8 nM | EC50 (SARS-CoV-2 S2 domain): 1.13 nM | EC50 (HKU1 spike protein): > 200 nM
